Data published in patent publication US20060183702A1.

Target: IIbIIIa receptor on human platelets (human) (UniProt P08514)
Chain of UniProt P08514 (P08514 32-1039, chain 1 of 2): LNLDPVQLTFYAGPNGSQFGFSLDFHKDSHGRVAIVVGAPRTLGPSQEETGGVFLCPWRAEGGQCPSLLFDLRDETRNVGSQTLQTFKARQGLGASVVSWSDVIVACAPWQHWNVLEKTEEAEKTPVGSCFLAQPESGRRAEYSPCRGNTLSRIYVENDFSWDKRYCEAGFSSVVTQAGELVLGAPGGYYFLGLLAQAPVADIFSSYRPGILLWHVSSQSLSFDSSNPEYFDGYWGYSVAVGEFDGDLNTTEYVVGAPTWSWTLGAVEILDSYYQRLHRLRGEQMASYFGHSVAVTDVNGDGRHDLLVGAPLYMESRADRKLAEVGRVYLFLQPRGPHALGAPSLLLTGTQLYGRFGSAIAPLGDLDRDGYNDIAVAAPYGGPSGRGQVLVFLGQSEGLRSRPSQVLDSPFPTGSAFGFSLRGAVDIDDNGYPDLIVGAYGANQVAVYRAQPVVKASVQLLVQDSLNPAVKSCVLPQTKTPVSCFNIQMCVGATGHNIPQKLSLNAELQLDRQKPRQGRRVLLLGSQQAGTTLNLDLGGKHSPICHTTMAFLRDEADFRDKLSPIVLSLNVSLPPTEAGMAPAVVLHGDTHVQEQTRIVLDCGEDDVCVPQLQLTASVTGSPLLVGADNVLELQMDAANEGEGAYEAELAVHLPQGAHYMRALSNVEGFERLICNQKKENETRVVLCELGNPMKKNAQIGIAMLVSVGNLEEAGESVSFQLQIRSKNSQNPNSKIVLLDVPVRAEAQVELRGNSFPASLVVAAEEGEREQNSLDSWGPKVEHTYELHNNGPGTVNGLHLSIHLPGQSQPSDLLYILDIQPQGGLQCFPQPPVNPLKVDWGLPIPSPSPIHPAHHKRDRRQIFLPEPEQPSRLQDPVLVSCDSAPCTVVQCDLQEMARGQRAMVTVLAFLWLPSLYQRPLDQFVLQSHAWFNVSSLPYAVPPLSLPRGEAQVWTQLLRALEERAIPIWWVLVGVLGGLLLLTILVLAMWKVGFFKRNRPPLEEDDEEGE
Chain of UniProt P08514 (P05106 27-788, chain 2 of 2, further chain): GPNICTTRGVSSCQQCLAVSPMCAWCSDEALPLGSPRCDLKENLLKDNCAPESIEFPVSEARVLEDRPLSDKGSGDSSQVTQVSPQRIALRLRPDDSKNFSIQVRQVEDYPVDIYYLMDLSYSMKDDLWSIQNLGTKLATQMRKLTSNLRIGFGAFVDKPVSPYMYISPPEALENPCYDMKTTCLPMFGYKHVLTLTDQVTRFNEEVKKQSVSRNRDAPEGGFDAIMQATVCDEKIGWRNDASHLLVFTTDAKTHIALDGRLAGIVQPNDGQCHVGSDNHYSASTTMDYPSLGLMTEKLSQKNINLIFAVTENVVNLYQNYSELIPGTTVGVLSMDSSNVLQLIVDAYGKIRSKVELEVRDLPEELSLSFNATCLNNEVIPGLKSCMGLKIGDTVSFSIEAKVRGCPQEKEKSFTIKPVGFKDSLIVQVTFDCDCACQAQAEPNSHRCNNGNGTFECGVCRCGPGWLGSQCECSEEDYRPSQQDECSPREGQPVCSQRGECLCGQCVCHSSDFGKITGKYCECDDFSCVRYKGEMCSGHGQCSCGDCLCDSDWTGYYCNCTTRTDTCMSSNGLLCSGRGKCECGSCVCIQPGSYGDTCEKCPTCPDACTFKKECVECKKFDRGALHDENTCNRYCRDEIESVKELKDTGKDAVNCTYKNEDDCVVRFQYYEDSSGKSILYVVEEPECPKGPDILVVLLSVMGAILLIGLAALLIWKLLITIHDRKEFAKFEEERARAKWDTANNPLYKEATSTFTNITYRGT

Integrilin (peptide)
IC50 (read off the curve), ADP-induced platelet aggregation (AIPA) in human PRP: 200 nM
